The target in data set [1] is cytosolic tryparedoxin from Leishmania major (Leishmania major) (UniProt E9ADX4). The data set can be described thus: SPR; as a6 but HBS-P buffer + 30 mM H2O2 (oxidizing conditions); LmTXNPx 80 nM-10 µM. (In general: In SPR one partner is held on a chip, and binding of the other changes the refractive index at the surface.)
The target of data set [2] is tryparedoxin-dependent peroxidase from Leishmania major (Leishmania major). The data set can be described thus: native gel or EMSA; Novex 4-12% Tris-Glycine non-denaturing gels; LmTXNPx 0.5 mg/mL with H2O2 (300, 30, 3 mM) or DTT (50, 5, 1 mM). For orientation: Mobility shift assays separate free from complexed probe on a gel.
The target in data set [3] is cytosolic tryparedoxin from Leishmania major (Leishmania major) (UniProt E9ADX4). The data set can be described thus: SPR; as a6 but HBS-P buffer + 1 mM dithiotreitol (reducing conditions); LmTXNPx 40 nM-5 µM; for the dissociation rate DTT was added after 2080 s to the complex formed in HBS-P.
The target in data set [4] is tryparedoxin-dependent peroxidase from Leishmania major (Leishmania major). The data set can be described thus: crystal structure; LmTXNPx about 12 mg/mL with 50 mM DTT, 22-26% PEG3350, 100 mM Bis-tris propane pH 8.0, 0.2 M KSCN, 293 K; five molecules per asymmetric unit, decamer from two adjacent asymmetric units; 3.0 Å.
The target in data set [5] is cytosolic tryparedoxin from Leishmania major (Leishmania major) (UniProt E9ADX4). Kind of data set: SPR; BIACORE X, CM5 chip; LmTXN immobilised by amine coupling (about 1000 RU), LmTXNPx flowed over (40 nM-4.0 µM); 298 K; HBS-P buffer (10 mM HEPES pH 7.4, 0.15 M NaCl, 0.005% P-20); 30 µL/min; Scatchard analysis of Req.
Data set [6] concerns the molecule itself. Kind of data set: crystal structure; LmTXN about 8 mg/mL, hanging drop, 293 K, 20-24% PEG 3350, 100 mM Tris-HCl pH 8.5, 50 mM MgCl2; one molecule per asymmetric unit, dimer by crystallographic two-fold; 1.8 Å.

Consider “tryparedoxin-dependent peroxidase from Leishmania major (enzyme)”, for which the Kd (as a rule, the concentration at which binding is half-saturated) in data set [1] is over 20 µM; in data set [3] it was over 20 µM; in data set [5] it was 1.1 µM. The koff – broadly, a measure of how fast the partners let go of each other – in data set [1] is over 0.1 s⁻¹; in data set [3] it was 0.009 s⁻¹; in data set [5] it was 5e-05 s⁻¹. Further, the stoichiometry N in data set [2] and in data set [4] was 10 each time.

B1: cytosolic tryparedoxin from Leishmania major (enzyme, UniProt E9ADX4 1-145, looked up)
chain: MSGVAKHLGEALKLRKQADTADMDSLSGKTVFFYFSASWCPPCRGFTPQLVEFYEKHHDSKNFEIILASWDEEEDDFNAYYAKMPWLSIPFANRNIVEALTKKYSVESIPTLIGLNADTGDTVTTRARHALTQDPMGEQFPWRDE
notes: cytosolic tryparedoxin (TXN1) of Leishmania major, gene amplified from L. major DNA with primers that hold the start (CATATG) and the stop codon; residues 2-145 seen in the crystal; Cloned between NdeI and HindIII of pET28b; the tag is probably N-terminal and thrombin probably leaves a few vector residues (surmised); Monomer-dimer equilibrium in solution, mostly monomer; also called LmTXN; TXN; …
On to B1, for which the stoichiometry N – broadly, a count of units in the complex or per binding partner – in data set [6] is 2.

Source of the values: article PMC3424247, “The Crystal Structures of the Tryparedoxin-Tryparedoxin Peroxidase Couple Unveil the Structural Determinants of Leishmania Detoxification Pathway” (PLoS Neglected Tropical Diseases, 2012).
